From article doi:10.1101/2022.03.12.484092 come the findings set out here.

The target in this data set is SARS-CoV-2 nucleocapsid N-terminal domain (NTD) (SARS-CoV-2, UniProt P0DTC9 41-174). Nature of the data set: fluorescence intensity titration.

Turning to UCUCUAAACG (ssRNA) [10-mer RNA], the binding result was “binds”.
